The source of these data is patent US11492376B2, “Toxoplasma gondii GRA8-derived recombinant peptides and composition for preventing or treating cancer comprising the same” (Industry—University Cooperation Foundation Hanyang …, priority 2019, dated 2022).

A short description of data set [1]: Immunogenicity: specific IgG by ELISA in immunized mice. The note with it: immunized BALB/C mice, OD 450 nm. As to the method:
Immunoblotting was performed with anti-PKCα, anti-ATP5A1, anti-SIRT3 or anti-actin. […] (B) The schematic diagram of a xenograft model treated with rVector (upper). HCT116-expressing ATP5A1 WT and mutant cells were subcutaneously injected into the flank of nude mice. […] Each group included 10 mice. […] (C) Humoral immune responses in BALB/C mice. The mice were immunized via each route (intravenous injection or intraperitoneal injection) every third day, and subjected to blood collection on day 40. […] The values are expressed as mean±standard deviation for absorbance (OD) at 450 nm. Each group included five mice. (D) Cytokine response for rATRAM-GRA8-M/AS in tumor-bearing mice. As described in the method section, HCT116 cells were subcutaneously injected into the flank of a BALB/c mouse. A serum cytokine level was measured on day 30 after administration. Each group included 10 mice.
Since immunogenicity is closely related with safety and efficacy, it is one of the critical factors for development of therapeutic proteins. Therefore, by monitoring the production of antibodies against rATRAM-GRA8-M/AS in immunized mice, the immunogenicity of rATRAM-GRA8-M/AS was investigated. After three consecutive injections of rATRAM-GRA8-M/AS, a level of IgG antibody was analyzed using enzyme-linked immunosorbent assay (ELISA).
(In general: An ELISA detects its analyte on a solid surface through an enzyme-linked reagent.)

The next data set has as its system HCT116 cells. Briefly: MitoTracker flow cytometry of mitochondrial mass in HCT116 cells. The data set is classed as cell-based, human. The following applies: 1 day, via SIRT3 and PKCα. As to the method:
FIGS. 4A, 4B, 4C, 4D and 4E show HCT116 cell death by rATRAM-GRA8-M/AS-induced mitochondrial activation [(A and B) HCT116 cells were incubated with WT rGRA8 or rATRAM-GRA8-M/AS and its mutants for indicated times, and then cell viability was measured with an MTT assay. […] The cells were stimulated with rATRAM-GRA8-M/AS for 1 day and subjected to enzymatic activity of OXPHOS V, and (C) MitoTracker fluorescence signals were assessed by flow cytometry. (D) A bar graph indicates a mitochondrial mass (MFI), and (E) the mtDNA content of BMDM was measured by quantitative real-time PCR. The mtDNA content was normalized by nuclear DNA. Significant differences were determined by comparison with control treatment (** P<0.01; *** P<0.001). Data represents five independent experiments with similar results].
A general note: In flow cytometry, cells or beads pass a laser one at a time.

B1: (GLAGLAGLLGLEGLLGLPLGLLEGLWLGLELEGN)2-GG-ATATTTTTTR-GG-YRFTVQTTQN (protein)
chain: GLAGLAGLLGLEGLLGLPLGLLEGLWLGLELEGNGLAGLAGLLGLEGLLGLPLGLLEGLWLGLELEGNGGATATTTTTTRGGYRFTVQTTQN
modifications: His tag; rATRAM-G8-M/AS
In the case of B1, in data set [1], the “level of specific IgG antibody” value is “negligible”. Further, the mitochondrial mass result with HCT116 cells is given as “enhanced”.
